{"source": "paper PMC4713133", "about": "(Molecular Biology of the Cell, 2016)", "binders": {"B1": {"name": "Arl13b-GST (natural protein)", "chain": "not shown"}}, "key": {"Sec5-Myc": {"molecular_target": "Sec5-Myc (rat, UniProt O54921 1-924)", "sequence (O54921 whole entry)": "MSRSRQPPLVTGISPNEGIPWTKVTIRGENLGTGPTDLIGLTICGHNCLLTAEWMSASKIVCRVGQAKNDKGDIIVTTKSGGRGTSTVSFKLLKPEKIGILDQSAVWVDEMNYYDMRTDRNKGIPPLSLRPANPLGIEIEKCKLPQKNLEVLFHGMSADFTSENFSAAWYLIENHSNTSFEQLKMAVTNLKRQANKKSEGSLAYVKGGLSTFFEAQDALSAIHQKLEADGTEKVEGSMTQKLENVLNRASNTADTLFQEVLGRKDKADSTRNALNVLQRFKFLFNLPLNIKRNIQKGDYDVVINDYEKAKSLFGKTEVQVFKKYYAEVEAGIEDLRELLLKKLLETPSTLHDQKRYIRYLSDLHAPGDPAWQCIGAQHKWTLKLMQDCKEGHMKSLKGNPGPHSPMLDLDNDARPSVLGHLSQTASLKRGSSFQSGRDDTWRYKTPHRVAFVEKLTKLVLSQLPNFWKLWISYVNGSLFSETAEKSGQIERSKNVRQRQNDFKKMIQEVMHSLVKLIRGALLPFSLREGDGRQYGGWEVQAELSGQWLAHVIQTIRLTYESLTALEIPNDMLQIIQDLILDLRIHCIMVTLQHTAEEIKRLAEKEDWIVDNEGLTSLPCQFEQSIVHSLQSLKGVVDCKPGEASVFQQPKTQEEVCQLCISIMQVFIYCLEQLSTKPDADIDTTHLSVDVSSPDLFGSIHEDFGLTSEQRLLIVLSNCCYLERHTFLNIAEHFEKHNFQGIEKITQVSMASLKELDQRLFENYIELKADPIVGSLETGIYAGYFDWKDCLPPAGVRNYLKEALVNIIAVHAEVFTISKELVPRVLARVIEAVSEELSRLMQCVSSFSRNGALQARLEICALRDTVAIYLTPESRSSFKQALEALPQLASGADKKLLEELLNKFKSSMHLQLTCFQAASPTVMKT", "assay": "pull-down"}, "Sec8-Myc": {"molecular_target": "Sec8-Myc (rat, UniProt Q62824 1-975)", "sequence (Q62824 whole entry)": "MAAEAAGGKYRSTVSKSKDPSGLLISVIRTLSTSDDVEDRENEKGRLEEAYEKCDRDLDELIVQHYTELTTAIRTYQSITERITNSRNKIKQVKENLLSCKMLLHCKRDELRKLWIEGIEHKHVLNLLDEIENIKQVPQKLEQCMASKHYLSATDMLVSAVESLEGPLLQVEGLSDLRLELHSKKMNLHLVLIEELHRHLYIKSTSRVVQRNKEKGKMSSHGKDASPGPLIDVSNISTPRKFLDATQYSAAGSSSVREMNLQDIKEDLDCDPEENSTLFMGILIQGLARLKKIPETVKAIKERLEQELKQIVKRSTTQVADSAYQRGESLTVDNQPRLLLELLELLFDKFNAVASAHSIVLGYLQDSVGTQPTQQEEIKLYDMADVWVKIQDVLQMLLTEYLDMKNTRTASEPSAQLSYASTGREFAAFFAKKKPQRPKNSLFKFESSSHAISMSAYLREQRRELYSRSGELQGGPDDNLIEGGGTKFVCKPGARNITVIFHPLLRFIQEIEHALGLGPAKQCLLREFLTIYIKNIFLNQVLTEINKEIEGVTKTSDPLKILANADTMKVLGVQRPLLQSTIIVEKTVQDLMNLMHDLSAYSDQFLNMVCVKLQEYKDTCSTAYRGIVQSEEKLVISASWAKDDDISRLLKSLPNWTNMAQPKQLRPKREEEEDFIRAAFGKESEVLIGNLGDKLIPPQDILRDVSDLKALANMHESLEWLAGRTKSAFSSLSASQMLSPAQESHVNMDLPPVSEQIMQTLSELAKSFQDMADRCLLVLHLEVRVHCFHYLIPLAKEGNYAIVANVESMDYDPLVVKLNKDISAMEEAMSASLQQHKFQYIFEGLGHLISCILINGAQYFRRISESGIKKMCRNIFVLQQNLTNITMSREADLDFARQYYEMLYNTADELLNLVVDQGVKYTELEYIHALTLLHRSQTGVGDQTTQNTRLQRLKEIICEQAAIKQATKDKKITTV", "assay": "pull-down"}}}
{"binder": "B1", "values": [{"measurement": "binding result", "setting": "Sec5-Myc", "result": "binds"}, {"measurement": "binding result", "setting": "Sec8-Myc", "result": "binds"}]}
